In the supplement of paper PMC9112550, “Optimization of the antimicrobial peptide Bac7 by deep mutational scanning” (BMC Biology, 2022):

System: Escherichia coli TOP10
Assay: shrunken log2 fold change of peptide-encoding DNA abundance (4.5 h post-induction vs induction); higher = less antimicrobial activity (less host growth inhibition)
Conditions: time post-induction: 4.5 h; library: site-saturation at positions 5, 18, 19, 20
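Also: peptides expressed intracellularly from a pBAD plasmid library in pooled LB shake-flask culture, induced with 0.3% L-arabinose, DNA abundance read by NGS, three biological replicates, DESeq2 with apeglm shrinkage.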

RRIRNRPPRLPRPRPRPRLLPRP
shrunken log2 fold change: 0.0984

RRIRNRPPRLPRPRPRPRMQPRP
shrunken log2 fold change: -0.0634

RRIRNRPPRLPRPRPRPRPWPRP
shrunken log2 fold change: 0.116

RRIRNRPPRLPRPRPRPRQNPRP
shrunken log2 fold change: -0.118

RRIRNRPPRLPRPRPRPRRAPRP
shrunken log2 fold change: 0.604

RRIRNRPPRLPRPRPRPRRHPRP
shrunken log2 fold change: 0.0212

RRIRNRPPRLPRPRPRPRRMPRP
shrunken log2 fold change: 0.207

RRIRNRPPRLPRPRPRPRRRPRP
shrunken log2 fold change: 0.558

RRIRNRPPRLPRPRPRPRTTPRP
shrunken log2 fold change: -0.0126

RRIRNRPPRLPRPRPRPRVAPRP
shrunken log2 fold change: 0.111

RRIRNRPPRLPRPRPRPRVMPRP
shrunken log2 fold change: 0.0236

RRIRNRPPRLPRPRPRPRVWPRP
shrunken log2 fold change: 3.4

RRIRNRPPRLPRPRPRPRWFPRP
shrunken log2 fold change: 0.173

RRIRNRPPRLPRPRPRPRYAPRP
shrunken log2 fold change: -0.0268

RRIRNRPPRLPRPRPRPRYMPRP
shrunken log2 fold change: -1.3

RRIRNRPPRLPRPRPRPRYQPRP
shrunken log2 fold change: -0.19

RRIRNRPPRLPRPRPRPRYTPRP
shrunken log2 fold change: -0.56

RRIRNRPPRLPRPRPRPSCEPRP
shrunken log2 fold change: -0.229

RRIRNRPPRLPRPRPRPSDLPRP
shrunken log2 fold change: -0.256

RRIRNRPPRLPRPRPRPSDWPRP
shrunken log2 fold change: 0.0113

RRIRNRPPRLPRPRPRPSFNPRP
shrunken log2 fold change: -0.143

RRIRNRPPRLPRPRPRPSGDPRP
shrunken log2 fold change: -0.252

RRIRNRPPRLPRPRPRPSGPPRP
shrunken log2 fold change: -0.0894

RRIRNRPPRLPRPRPRPSGVPRP
shrunken log2 fold change: -0.0499

RRIRNRPPRLPRPRPRPSHHPRP
shrunken log2 fold change: -0.421

RRIRNRPPRLPRPRPRPSHQPRP
shrunken log2 fold change: -0.374

RRIRNRPPRLPRPRPRPSKIPRP
shrunken log2 fold change: -0.846

RRIRNRPPRLPRPRPRPSMLPRP
shrunken log2 fold change: -0.145

RRIRNRPPRLPRPRPRPSMWPRP
shrunken log2 fold change: -0.0524

RRIRNRPPRLPRPRPRPSNSPRP
shrunken log2 fold change: -0.235

RRIRNRPPRLPRPRPRPSPHPRP
shrunken log2 fold change: -0.171

RRIRNRPPRLPRPRPRPSSKPRP
shrunken log2 fold change: -0.244

RRIRNRPPRLPRPRPRPSSVPRP
shrunken log2 fold change: 0.066

RRIRNRPPRLPRPRPRPSSWPRP
shrunken log2 fold change: 0.0908

RRIRNRPPRLPRPRPRPSVIPRP
shrunken log2 fold change: -0.781

RRIRNRPPRLPRPRPRPSWRPRP
shrunken log2 fold change: 0.0128

RRIRNRPPRLPRPRPRPSYHPRP
shrunken log2 fold change: -0.273

RRIRNRPPRLPRPRPRPTAQPRP
shrunken log2 fold change: 0.136

RRIRNRPPRLPRPRPRPTCPPRP
shrunken log2 fold change: 0.059

RRIRNRPPRLPRPRPRPTDCPRP
shrunken log2 fold change: -0.484

RRIRNRPPRLPRPRPRPTEDPRP
shrunken log2 fold change: -0.187

RRIRNRPPRLPRPRPRPTERPRP
shrunken log2 fold change: -0.25

RRIRNRPPRLPRPRPRPTESPRP
shrunken log2 fold change: -0.0455

RRIRNRPPRLPRPRPRPTFEPRP
shrunken log2 fold change: -0.0715

RRIRNRPPRLPRPRPRPTFFPRP
shrunken log2 fold change: -0.139

RRIRNRPPRLPRPRPRPTFNPRP
shrunken log2 fold change: -0.506

RRIRNRPPRLPRPRPRPTFPPRP
shrunken log2 fold change: -0.112

RRIRNRPPRLPRPRPRPTGNPRP
shrunken log2 fold change: -0.104

RRIRNRPPRLPRPRPRPTGPPRP
shrunken log2 fold change: 0.126

RRIRNRPPRLPRPRPRPTIQPRP
shrunken log2 fold change: -0.213

RRIRNRPPRLPRPRPRPTIVPRP
shrunken log2 fold change: -0.0363

RRIRNRPPRLPRPRPRPTKCPRP
shrunken log2 fold change: -0.16

RRIRNRPPRLPRPRPRPTKGPRP
shrunken log2 fold change: 0.0423

RRIRNRPPRLPRPRPRPTMFPRP
shrunken log2 fold change: -0.247

RRIRNRPPRLPRPRPRPTMKPRP
shrunken log2 fold change: -0.368

RRIRNRPPRLPRPRPRPTMNPRP
shrunken log2 fold change: -0.134

RRIRNRPPRLPRPRPRPTMPPRP
shrunken log2 fold change: 0.0915

RRIRNRPPRLPRPRPRPTMQPRP
shrunken log2 fold change: 0.0135

RRIRNRPPRLPRPRPRPTNDPRP
shrunken log2 fold change: 0.0554

RRIRNRPPRLPRPRPRPTPSPRP
shrunken log2 fold change: 0.338

RRIRNRPPRLPRPRPRPTQDPRP
shrunken log2 fold change: 0.387

RRIRNRPPRLPRPRPRPTQEPRP
shrunken log2 fold change: 0.786

RRIRNRPPRLPRPRPRPTQFPRP
shrunken log2 fold change: 0.138

RRIRNRPPRLPRPRPRPTQIPRP
shrunken log2 fold change: 0.135

RRIRNRPPRLPRPRPRPTQLPRP
shrunken log2 fold change: -0.0336

RRIRNRPPRLPRPRPRPTQSPRP
shrunken log2 fold change: 0.291

RRIRNRPPRLPRPRPRPTRHPRP
shrunken log2 fold change: 0.162

RRIRNRPPRLPRPRPRPTRLPRP
shrunken log2 fold change: 0.2

RRIRNRPPRLPRPRPRPTRPPRP
shrunken log2 fold change: 0.663

RRIRNRPPRLPRPRPRPTTAPRP
shrunken log2 fold change: -0.0817

RRIRNRPPRLPRPRPRPTTDPRP
shrunken log2 fold change: -0.199

RRIRNRPPRLPRPRPRPTTKPRP
shrunken log2 fold change: -0.0801

RRIRNRPPRLPRPRPRPTYCPRP
shrunken log2 fold change: -0.276

RRIRNRPPRLPRPRPRPVADPRP
shrunken log2 fold change: 0.217

RRIRNRPPRLPRPRPRPVAKPRP
shrunken log2 fold change: -0.107

RRIRNRPPRLPRPRPRPVANPRP
shrunken log2 fold change: -0.0653

RRIRNRPPRLPRPRPRPVARPRP
shrunken log2 fold change: 0.23

RRIRNRPPRLPRPRPRPVDAPRP
shrunken log2 fold change: 0.154

RRIRNRPPRLPRPRPRPVDIPRP
shrunken log2 fold change: 0.00355

RRIRNRPPRLPRPRPRPVEKPRP
shrunken log2 fold change: 0.143

RRIRNRPPRLPRPRPRPVEVPRP
shrunken log2 fold change: -0.296

RRIRNRPPRLPRPRPRPVFVPRP
shrunken log2 fold change: -0.123

RRIRNRPPRLPRPRPRPVGKPRP
shrunken log2 fold change: 0.028

RRIRNRPPRLPRPRPRPVGQPRP
shrunken log2 fold change: -0.185

RRIRNRPPRLPRPRPRPVHNPRP
shrunken log2 fold change: -0.289

RRIRNRPPRLPRPRPRPVIAPRP
shrunken log2 fold change: -0.25

RRIRNRPPRLPRPRPRPVIEPRP
shrunken log2 fold change: -0.0754

RRIRNRPPRLPRPRPRPVKNPRP
shrunken log2 fold change: -0.157

RRIRNRPPRLPRPRPRPVKPPRP
shrunken log2 fold change: 0.0644

RRIRNRPPRLPRPRPRPVKYPRP
shrunken log2 fold change: -0.288

RRIRNRPPRLPRPRPRPVLLPRP
shrunken log2 fold change: -0.0738

RRIRNRPPRLPRPRPRPVLNPRP
shrunken log2 fold change: -0.261

RRIRNRPPRLPRPRPRPVLYPRP
shrunken log2 fold change: -0.374

RRIRNRPPRLPRPRPRPVMFPRP
shrunken log2 fold change: -0.0883

RRIRNRPPRLPRPRPRPVMNPRP
shrunken log2 fold change: -0.075

RRIRNRPPRLPRPRPRPVPRPRP
shrunken log2 fold change: 0.0283

RRIRNRPPRLPRPRPRPVPYPRP
shrunken log2 fold change: 0.0481

RRIRNRPPRLPRPRPRPVQAPRP
shrunken log2 fold change: -0.00783

RRIRNRPPRLPRPRPRPVQQPRP
shrunken log2 fold change: 0.171

RRIRNRPPRLPRPRPRPVRAPRP
shrunken log2 fold change: 0.545

RRIRNRPPRLPRPRPRPVRSPRP
shrunken log2 fold change: -0.00792

RRIRNRPPRLPRPRPRPVTDPRP
shrunken log2 fold change: -0.013

RRIRNRPPRLPRPRPRPVTNPRP
shrunken log2 fold change: 0.0485

RRIRNRPPRLPRPRPRPVTPPRP
shrunken log2 fold change: 0.0444

RRIRNRPPRLPRPRPRPVVCPRP
shrunken log2 fold change: -0.06

RRIRNRPPRLPRPRPRPVWEPRP
shrunken log2 fold change: 0.0809

RRIRNRPPRLPRPRPRPWAPPRP
shrunken log2 fold change: -0.23

RRIRNRPPRLPRPRPRPWFTPRP
shrunken log2 fold change: -0.786

RRIRNRPPRLPRPRPRPWGNPRP
shrunken log2 fold change: 0.00408
